# According to patent US10704030B2, “P450-BM3 variants with improved activity” (Codexis, Inc., priority 2015, dated 2020):
# Legend:
# Format in all cases: biochemical
# [1] = Validation of generalist properties: oxidation of gefitinib by lyophilized P450-BM3 variant, UPLC-MS; details: [Gefitinib] = 1 mM; for TON: TON = [substrate]*% conversion/[P450]; for FIOPC (B02): fold improvement over parent MCYP-P1.2-B02
# Summary of the method: (§1)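 Lyophilized lysate of E. coli-expressed P450-BM3 variant (stock standardized to 12 μM heme) was incubated 24 h at 30 °C with 1 or 2 mM substrate, 1.0 mM NADP+, 25 mM glucose, 0.5 mg/mL glucose dehydrogenase and 5% DMSO in 100 mM potassium phosphate. Acetonitrile-quenched samples were analyzed by UPLC-MS (positive ESI).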
# [2] = Validation of generalist properties: oxidation of diclofenac by lyophilized P450-BM3 variant, UPLC-MS; details: [Diclofenac] = 1 mM; for TON: TON = [substrate]*% conversion/[P450]; for FIOPC (B02): fold improvement over parent MCYP-P1.2-B02
# Summary of the method: as §1
# [3] = Validation of generalist properties: oxidation of imatinib by lyophilized P450-BM3 variant, UPLC-MS; details: [Imatinib] = 1 mM; for TON: TON = [substrate]*% conversion/[P450]; for FIOPC (B02): fold improvement over parent MCYP-P1.2-B02
# Summary of the method: as §1
# [4] = Validation of generalist properties: oxidation of loratadine by lyophilized P450-BM3 variant, UPLC-MS; details: [Loratadine] = 1 mM; for TON: TON = [substrate]*% conversion/[P450]; for FIOPC (B02): fold improvement over parent MCYP-P1.2-B02
# Summary of the method: as §1
# [5] = fold improvement over parent MCYP-P1.2-B12
Molecule,% Conv. [1],TON [1],FIOPC (B02) [1],% Conv. [2],TON [2],FIOPC (B02) [2],% Conv. [3],TON [3],FIOPC (B02) [3],% Conv. [4],TON [4],FIOPC (B02) [4],"FIOPC (B12) [1, 5]","FIOPC (B12) [2, 5]","FIOPC (B12) [3, 5]","FIOPC (B12) [4, 5]"
"Variant 10: P450-BM3 variant of SEQ ID NO: 8: K32R; Y52F; K95P; Q111R; G115R; I176V; L216Y; D232H; P347T; E349T; M491A; T577A; E619D; D722S (protein, P450_BM3, Y52F; K95P; Q111R; G115R; I176V; L216Y; D232H; P347T; E349T; M491A; T577A; E619D; D722S) MTIKEMPQPKTFGELKNLPLLNTDKPVQALMRIADELGEIFKFEAPGRVTRFLSSQRLIKEACDESRFDKNLSQALKFARDFAGDGLFTSWTHEPNWKKAHNILLPSFSQRAMKRYHAMMVDIAVQLVQKWERLNADEYIEVPEDMTRLTLDTIGLCGFNYRFNSFYRDQPHPFIVSMIRALDEVMNKLQRANPDDPAYDENKRQFQEDIKVMNDYVDKIIADRKASGEQSHDLLTQMLNGKDPETGEPLDDGNISYQIITFLIAGHETTSGLLSFALYFLVKNPHVLQKVAEEATRVLVDPVPSYKQVKQLKYVGMVLNEALRLWPTAPAFSLYAKEDTVLGGEYTLTKGDEVMVLIPQLHRDKTIWGDDVEEFRPERFENPSAIPQHAFKPFGNGQRACIGQQFALHEATLVLGMMLKHFDFEDHTNYELDIKETLTLKPEGFVVKAKSKKIPLGGIPSPSTEQSAKKVRKKAENAHNTPLLVLYGSNAGTAEGTARDLADIAMSKGFAPQVATLDSHAGNLPREGAVLIVTASYNGHPPDNAKQFVDWLDQASADEVKGVRYSVFGCGDKNWAATYQKVPAFIDETLAAKGAENIADRGEADASDDFEGTYEEWRDHMWSDVAAYFNLDIENSEDNKSTLSLQFVDSAADMPLAKMHGAFSTNVVASKELQQPGSARSTRHLEIELPKEASYQEGDHLGVIPRNYEGIVNRVTARFGLSASQQIRLEAEEEKLAHLPLAKTVSVEELLQYVELQDPVTRTQLRAMAAKTVCPPHKVELEALLEKQAYKEQVLAKRLTMLELLEKYPACEMKFSEFIALLPSIRPRYYSISSSPRVDEKQASITVSVVSGEAWSGYGEYKGIASNYLAELQEGDTITCFISTPQSEFTLPKDPETPLIMVGPGTGVAPFRGFVQARKQLKEQGQSLGEAHLYFGCRSPHEDYLYQEELENAQSEGIITLHTAFSRMPNQPKTYVQHVMEQDGKKLIELLDQGAHFYICGDGSQMAPAVEATLMKSYADVHQVSEADARLWLQQLEEKGRYAKDVWAG",++ (5.01-10.00),‡‡ (1001-5000),**** (10.01-15.00),+++ (10.01-15.00),‡‡‡ (5001-10000),* (0.0-3.0),++++ (15.01-20.00),‡‡‡‡ (10000-50000),** (3.01-5.0),++ (5.01-10.00),‡‡ (1001-5000),* (0.0-3.0),,,,
"Variant 11: P450-BM3 variant of SEQ ID NO: 8: K95P; Q111R; G115R; I176V; L216Y; E349T; M491A; T577A; E619D; D722S (protein, P450_BM3, Q111R; G115R; I176V; L216Y; E349T; M491A; T577A; E619D; D722S) MTIKEMPQPKTFGELKNLPLLNTDKPVQALMKIADELGEIFKFEAPGRVTRYLSSQRLIKEACDESRFDKNLSQALKFARDFAGDGLFTSWTHEPNWKKAHNILLPSFSQRAMKRYHAMMVDIAVQLVQKWERLNADEYIEVPEDMTRLTLDTIGLCGFNYRFNSFYRDQPHPFIVSMIRALDEVMNKLQRANPDDPAYDENKRQFQEDIKVMNDYVDKIIADRKASGEQSDDLLTQMLNGKDPETGEPLDDGNISYQIITFLIAGHETTSGLLSFALYFLVKNPHVLQKVAEEATRVLVDPVPSYKQVKQLKYVGMVLNEALRLWPTAPAFSLYAKEDTVLGGEYPLTKGDEVMVLIPQLHRDKTIWGDDVEEFRPERFENPSAIPQHAFKPFGNGQRACIGQQFALHEATLVLGMMLKHFDFEDHTNYELDIKETLTLKPEGFVVKAKSKKIPLGGIPSPSTEQSAKKVRKKAENAHNTPLLVLYGSNAGTAEGTARDLADIAMSKGFAPQVATLDSHAGNLPREGAVLIVTASYNGHPPDNAKQFVDWLDQASADEVKGVRYSVFGCGDKNWAATYQKVPAFIDETLAAKGAENIADRGEADASDDFEGTYEEWRDHMWSDVAAYFNLDIENSEDNKSTLSLQFVDSAADMPLAKMHGAFSTNVVASKELQQPGSARSTRHLEIELPKEASYQEGDHLGVIPRNYEGIVNRVTARFGLSASQQIRLEAEEEKLAHLPLAKTVSVEELLQYVELQDPVTRTQLRAMAAKTVCPPHKVELEALLEKQAYKEQVLAKRLTMLELLEKYPACEMKFSEFIALLPSIRPRYYSISSSPRVDEKQASITVSVVSGEAWSGYGEYKGIASNYLAELQEGDTITCFISTPQSEFTLPKDPETPLIMVGPGTGVAPFRGFVQARKQLKEQGQSLGEAHLYFGCRSPHEDYLYQEELENAQSEGIITLHTAFSRMPNQPKTYVQHVMEQDGKKLIELLDQGAHFYICGDGSQMAPAVEATLMKSYADVHQVSEADARLWLQQLEEKGRYAKDVWAG",+ (0-5.00),‡ (0-1000),* (0.0-3.0),++++ (15.01-20.00),‡‡‡ (5001-10000),* (0.0-3.0),++++ (15.01-20.00),‡‡‡‡ (10000-50000),* (0.0-3.0),+++ (10.01-15.00),‡‡‡ (5001-10000),* (0.0-3.0),,,,
"SEQ ID NO: 10: P450-BM3 parental backbone from the commercially available MCYP panel (MCYP-0343; Codexis) (protein, P450_BM3) MTIKEMPQPKTFGELKNLPLLNTDKPVQALMKIADELGEIFKFEAPGCVTRYLSSQRLIKEACDESRFDKNLSQALKFARDFAGDGLATSWTHEINWKKAHNILLPSFSQQAMKGYHAMMVDIAVQLVQKWERLNADEHIEVSEDMTRLTLDTIGLCGFNYRFNSFYRDQPHPFIISMVRALDEVMNKLQRANPDDPAYDENKRQCQEDIKVMNDLVDKIIADRKARGEQSDDLLTQMLNGKDPETGEPLDDGNISYQIITFLIAGHETTSGLLSFALYFLVKNPHVLQKVAEEAARVLVDPVPSYKQVKQLKYVGMVLNEALRLWPTAPAFSLYAKEDTVLGGEYPLEKGDEVMVLIPQLHRDKTIWGDDVEEFRPERFENPSAIPQHAFKPFGNGQRACIGQQFALHEATLVLGMMLKHFDFEDHTNYELDIKETLTLKPEGFVVKAKSKKIPLGGIPSPSTEQSAKKVRKKAENAHNTPLLVLYGSNMGTAEGTARDLADIAMSKGFAPQVATLDSHAGNLPREGAVLIVTASYNGHPPDNAKQFVDWLDQASADEVKGVRYSVFGCGDKNWATTYQKVPAFIDETLAAKGAENIADRGEADASDDFEGTYEEWREHMWSDVAAYFNLDIENSEDNKSTLSLQFVDSAADMPLAKMHGAFSTNVVASKELQQPGSARSTRHLEIELPKEASYQEGDHLGVIPRNYEGIVNRVTARFGLDASQQIRLEAEEEKLAHLPLAKTVSVEELLQYVELQDPVTRTQLRAMAAKTVCPPHKVELEALLEKQAYKEQVLAKRLTMLELLEKYPACEMKFSEFIALLPSIRPRYYSISSSPRVDEKQASITVSVVSGEAWSGYGEYKGIASNYLAELQEGDTITCFISTPQSEFTLPKDPETPLIMVGPGTGVAPFRGFVQARKQLKEQGQSLGEAHLYFGCRSPHEDYLYQEELENAQSEGIITLHTAFSRMPNQPKTYVQHVMEQDGKKLIELLDQGAHFYICGDGSQMAPAVEATLMKSYADVHQVSEADARLWLQQLEEKGRYAKDVWAG",++ (5.01-10.00),‡‡ (1001-5000),,++++ (15.01-20.00),‡‡‡‡ (10000-50000),,++ (5.01-10.00),‡‡ (1001-5000),,++++ (15.01-20.00),‡‡‡‡ (10000-50000),,,,,
"Variant 3: P450-BM3 variant of SEQ ID NO: 10: K32R; C48S; Y52F; I95P; L216Y; D232H; E349K; M491A; N574T; D722S (protein, P450_BM3, C48S; Y52F; I95P; L216Y; D232H; E349K; M491A; N574T; D722S) MTIKEMPQPKTFGELKNLPLLNTDKPVQALMRIADELGEIFKFEAPGSVTRFLSSQRLIKEACDESRFDKNLSQALKFARDFAGDGLATSWTHEPNWKKAHNILLPSFSQQAMKGYHAMMVDIAVQLVQKWERLNADEHIEVSEDMTRLTLDTIGLCGFNYRFNSFYRDQPHPFIISMVRALDEVMNKLQRANPDDPAYDENKRQCQEDIKVMNDYVDKIIADRKARGEQSHDLLTQMLNGKDPETGEPLDDGNISYQIITFLIAGHETTSGLLSFALYFLVKNPHVLQKVAEEAARVLVDPVPSYKQVKQLKYVGMVLNEALRLWPTAPAFSLYAKEDTVLGGEYPLKKGDEVMVLIPQLHRDKTIWGDDVEEFRPERFENPSAIPQHAFKPFGNGQRACIGQQFALHEATLVLGMMLKHFDFEDHTNYELDIKETLTLKPEGFVVKAKSKKIPLGGIPSPSTEQSAKKVRKKAENAHNTPLLVLYGSNAGTAEGTARDLADIAMSKGFAPQVATLDSHAGNLPREGAVLIVTASYNGHPPDNAKQFVDWLDQASADEVKGVRYSVFGCGDKTWATTYQKVPAFIDETLAAKGAENIADRGEADASDDFEGTYEEWREHMWSDVAAYFNLDIENSEDNKSTLSLQFVDSAADMPLAKMHGAFSTNVVASKELQQPGSARSTRHLEIELPKEASYQEGDHLGVIPRNYEGIVNRVTARFGLSASQQIRLEAEEEKLAHLPLAKTVSVEELLQYVELQDPVTRTQLRAMAAKTVCPPHKVELEALLEKQAYKEQVLAKRLTMLELLEKYPACEMKFSEFIALLPSIRPRYYSISSSPRVDEKQASITVSVVSGEAWSGYGEYKGIASNYLAELQEGDTITCFISTPQSEFTLPKDPETPLIMVGPGTGVAPFRGFVQARKQLKEQGQSLGEAHLYFGCRSPHEDYLYQEELENAQSEGIITLHTAFSRMPNQPKTYVQHVMEQDGKKLIELLDQGAHFYICGDGSQMAPAVEATLMKSYADVHQVSEADARLWLQQLEEKGRYAKDVWAG",++++ (15.01-20.00),‡‡‡‡ (10000-50000),,++++ (15.01-20.00),‡‡‡‡ (10000-50000),,++++ (15.01-20.00),‡‡‡‡ (10000-50000),,++++ (15.01-20.00),‡‡‡‡ (10000-50000),,*** (5.01-10.0),* (0.0-3.0),*** (5.01-10.0),* (0.0-3.0)
